In patent CN117677637A (PETEMEDI LTD, dated 2024):

T1: 犬CD20 (canine CD20, B淋巴细胞抗原CD20, full length, wild type) (canine (dog), UniProt Q3C2E2 1-297)
T1 construct: Stably expressed from full-length cDNA on MDCK II (or HEK293) cells for flow cytometry and ADCC; naturally expressed on CLBL-1 canine lymphoma cells in the CDC assay; also called cCD20; MS4A1
T1 chain: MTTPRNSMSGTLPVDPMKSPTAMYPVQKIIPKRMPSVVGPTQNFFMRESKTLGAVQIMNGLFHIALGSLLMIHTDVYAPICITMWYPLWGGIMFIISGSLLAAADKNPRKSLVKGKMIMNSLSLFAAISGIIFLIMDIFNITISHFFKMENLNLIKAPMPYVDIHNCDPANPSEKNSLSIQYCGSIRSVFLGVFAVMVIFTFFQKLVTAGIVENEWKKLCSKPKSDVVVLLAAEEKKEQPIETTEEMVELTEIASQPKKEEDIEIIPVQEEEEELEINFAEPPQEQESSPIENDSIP


Target: T1, 犬CD20 (canine CD20, B淋巴细胞抗原CD20, full …)
Experiment: flow cytometry, 10 ug/ml antibody on MDCK II cells expressing canine CD20 (Fig 3B)

binding result | Binder
binds | PMX011 (antibody, V domains shown, PMX003 heavy chain; Constant regions not restated (PMX003: dog IGGB / dog IGLC5); also called PMX011 mAb; TVT) VH: EVQLVESGGDLVKPGGSLRLSCVASGITFSRYHMSWVRQAPGKGLQWVAYINSGGSSTSYPDAVKGRFTISRDNAKNTLYLQMDSLRAEDTALYYCTTFDYWGQGTLVTVSS VL: SYVLTQLPSKTVTLKQPAHITCGGDNIGSKSVHWYQQKLGQAPVLIIYYDSRRPTGIPERFSGANSGNTATLTISGALAEDEADYYCQVWDSSANVFGGGTHLTVL
binds | PMX010 (antibody, V domains shown, PMX003 heavy chain; Constant regions not restated (PMX003: dog IGGB / dog IGLC5); also called PMX010 mAb; SVT) VH: EVQLVESGGDLVKPGGSLRLSCVASGITFSRYHMSWVRQAPGKGLQWVAYINSGGSSTSYPDAVKGRFTISRDNAKNTLYLQMDSLRAEDTALYYCTTFDYWGQGTLVTVSS VL: SYVLTQLPSKSVTLKQPAHITCGGDNIGSKSVHWYQQKLGQAPVLIIYYDSRRPTGIPERFSGANSGNTATLTISGALAEDEADYYCQVWDSSANVFGGGTHLTVL

Target: T1, 犬CD20 (canine CD20, B淋巴细胞抗原CD20, full …)
Experiment: flow cytometry, 10 ug/ml antibody on MDCK II cells expressing canine CD20 (Fig 3A)

binding result | Binder
binds | PMX001 (antibody, V domains shown, Fully canine mAb; also called PMX001 mAb) VH: EVQLVESGGDLVKPGGSLRLSCVASGFTFSSYHMSWVRQAPGKGLQWVAYINSGGSSTTYADAVKGRFTISRDNAKKTLYLQMNSLRAEDTAVYYCSTFDYWGQGTLVTVSS VL: SYVLTQLPSRNVTLKQPAHITCGGDNIGSKSVHWYQQKLGQAPVLIIYYDTRRPTGIPERFSGANSGNTATLTISGALAEDEADYYCQVWDSSGNVFGGGTHLTVL
binds | PMX004 (antibody, V domains shown, Fully canine mAb; also called PMX004 mAb) VH: EVQLVESGGELVKPGGSLRVSCVASGITFSRYHMSWVRQAPGKGLQWVAFINTDRSSPKYADSVKGRFTISRDNAKNTLYLQMNSLRAEDTAIYYCTSFDYWGQGTLVTVSS VL: SYVLTQLPSKNVTLKQPAHITCGGDNIGSKSVHWYQQKLGQAPVLIIYYDSSRPTGIPERFSGANSGNTATLTISGALAEDEADYYCQVWDSSANVFGGGTHLTVL
binds | PMX005 (antibody, V domains shown, Fully canine mAb; also called PMX005 mAb) VH: EVQLVESGGDLVKPGGSLRLSCVASGFTFSRYHMSWVRQAPGKGLQWVAYINSGGSDSDYADAVKGRFTISRDNAKNTLYLQMNSLRAEDTAVYYCTSLDYWGQGTLVTVSS VL: SYVLTQLPSKNVTLKQPAHITCGGDNIGSKSVHWYQQKLGQAPVLIIYYDSSRPTGIPERFSGANSGNTATLTISGALAEDEADYYCQVWDRSGNVFGGGTHLTVL

Target: T1, 犬CD20 (canine CD20, B淋巴细胞抗原CD20, full …)
Experiment: flow cytometry, 10 ug/ml antibody on MDCK II cells expressing canine CD20 (Fig 3C)

binding result | Binder
binds | PMX076 (antibody, V domains shown) VH: EVQLVESGGDLVKPGGSLRLSCVASGITFSRYYMNWVRQAPGKGLQWVAYIDSGGSPTTYADAVKGRFTISRDNAKKALYLQMNSLRAEDTAVYYCTSFDYWGQGTLVTVSS VL: SYVLTQLPSKNVTLKQPAHITCGGDNIGSKSVHWYQQKLGQAPVLIIYYDSSRPTGIPERFSGANSGNTATLTISGALAEDEADYFCQVWDSSANVFGGGTHLTVL
binds | PMX069 (antibody, V domains shown, also called PMX0069) VH: EMQLVESGGALVKPGGSLRLSCVASGFTFRRYHMSWVRQAPGQGLQWVAYIDSDGSPTSYGDSVKGRFTISRDNAKNTLFLQMNSLRVDDTAVYYCTTLDYWGRGTLVTVSS VL: SYVLTQVPSKNVTLKQPAHITCGGDNIGGKSVHWYQQKLGQAPLLIIYYDTRRPTGIPERFSGANSGNTATLTISRALAEDEADYYCQVWDSSGNVFGGGTHLTVI
binds | PMX074 (antibody, V domains shown) VH: EVQLVESGGDLVKPGGSLRLSCVASGFTFSRYYMTWVRQAPGKGLQWVAYINSDRRSTTYADAVKGRFTISRDNAKNTLYLQMNSLRAEDTAVYYCTTLEYWGQGTLVTVSS VL: SYVLTQLPSKNVTLKQPAHITCGGDNIGSKSVHWYQQKLGQAPVLIIYYDSRRPTGIPERFSGANSGNTATLTINGALAEDEADYYCQVWDSSANVFGGGTHLTVL
binds | PMX078 (antibody, V domains shown) VH: EVQLVESGGDLVKPGGSLRLSCVASGLTFSRYHMSWIRQAPGKGLQWVAYISSGGSSTNYAGSVKGRFTVSRDNAKNTLYLQMNSLRAEDTAVYYCTSLDYWGQGTLVTVSS VL: SYVLTQLPSKNVTLKQPAHITCGGDNIGSKSVHWYQQKLGQAPVLIIYYDSRRPTGIPERFSGANSGNTATLTISGALAEDEADYYCQVWDSSDNVFGGGTHLTVL
binds | PMX071 (antibody, V domains shown) VH: EVHLVESGGDLVKPGGSLRLSCVASGITFNRYYMNWVRQTPGKGLQWVAYIDSGGSPTTYADAVKGRFTISRDNAKNTLYLQMNSLRAEDTAVYYCTSFDYWGQGTLVTVSS VL: SYVLTQLPSKNVTLKQPAHITCGGDNIGSKSVHWYQQKLGQAPILIIYYDTSRPTGIPERFSGANSGNTATLTISGALAEDEADYYCQVWDSSANVFGGGTHLTVL
binds | PMX081 (antibody, V domains shown) VH: EVQLVQSGGDLVKPGGSLRLSCVASGYTFTRYHMSWVRQAPGKGLQWVAFINSDGTGITYGDAVKGRFTISRDNAKNTLYLQMNSLRAEDTAIYYCTTFDSWGQGTLVTVSS VL: SYVLTQLPSKNVTLKQPAHITCGGDNIGSKSVHWYQQKLGQAPILIIYYDSRRPTGIPERFSGANSGNTATLTISGALAEDEADYYCQVWDSSGNVFGGGTHLTVL
binds | PMX066 (antibody, V domains shown, Canine mAb) VH: AVQLVESGGDLVKPGGSLRLSCVASGITFSRYHMSWVRQAPGKGLQWVAYINSGGSATSYTDAVKGRFSISRDNGKNTLYLQMNSLRVEDSAVYYCTTLDLWGQGTLVTVSS VL: SYVLTQLPSKNVTLKQPAHITCGGDNIGSKSVHWYQQKLGQAPVLIIYYDSRRPTGIPERFSGANSGNTATLTINGALAEDEADYYCQMWDSSANVFGGGTHLTVL
binds | PMX075 (antibody, V domains shown) VH: EVQLVESGGDLVKPGGSLRLSCVASGITFSRYHMSWVRQAPGKGLQWVAFINTGRSSTNYADAVAGRFTISRDNAKNTLYLQMNGLTVEDTAVYYCSTLDYWGQGTLVTVSS VL: SYVLTQLPSKSVTLKQPAHITCGGDNIGSKSVHWYQQKLGQAPILIIYYDNNRPTGIPERFSGANSGNTATLTISGALAEDEADYYCHVWDSSVNVFGGGTHLTVL
binds | PMX080 (antibody, V domains shown) VH: EVQLVESGGDLVKPGGSLRLSCVASGLTFSRYYMNWVRQAPGKGLQWVAYIDSGGSPTNYADAVKGRFTISRDNAKNTLYLQMNSLRAEDTAVYYCSSFDYWGQGTLVTVSS VL: SYVVTQLPSNTVTLKQPAHITCGGDNIGSKSVHWYQQKLGQAPVLIIYYDSRRPTGIPERFSGANSGNTATLTISGALAEDEADYYCQVWDSSANVFGGGTHLTVL
binds | PMX079 (antibody, V domains shown) VH: EVQLVESGGDLVKPGGSLRLSCVASGLTFSRYHMSWVRQAPGKGLQWVAFINSGRSDTTYADAVKGRFTISRDNAKNTLYLQMNSLRAEDTAVYYCTTFDYWGQGTLVTVSS VL: SYVLTQLPSKNVTLKQPAHITCGGDNIGSKSVHWYQQKLGQAPALIIYYDSSRPTGIPERFSGANSGNTATLTISGALAEDEADYYCQVWDSSANVFGGGTHLTVL
binds | PMX067 (antibody, V domains shown, also called PMX0067) VH: EIQLVESGGDLVKPGGSLRLSCVASGFTFSRYHMSWVRQAPGKGLQWVAYINTGGSNTNYADAVKGRFTISRDNAKNTLYLQMNSLRAEDTAVYYCTTLDSWGQGTLVTVSS VL: SYVLTQLPFKNVTLKQPAHITCGGDNIGSKSVHWYQQKLGQAPVLIIYYDSRRPTGIPERFSGANSGNTATLTISGALAEDEADYYCQVWDSSVNVFGGGTHLTVL
binds | PMX072 (antibody, V domains shown) VH: EVQLVESGGDLVKPGGSLRLSCVASGFTFSRYHMSWVRQAPGKGLQWVAFINTGRSSTNYADAVAGRFTISRDNAKNTLYLQMNSLRAEDTAVYYCSTLDYWGQGTLVTVSS VL: SYVLTQLPSKNVTLKQPAHITCGGDNIGSKSVHWYQQKLGQAPVLIIYYDSSRPTGIPERFSGANSGNTATLTISGALAEDEADYYCQVWDSSANVFGGGTHLTVL
binds | PMX077 (antibody, V domains shown) VH: EVQLVESGGDLVKPGGSLRLSCVASGITFSRYYMNWVRQAPGKGLQWVAYINSGGSPTTYADAVKGRFTISRDNAKNTLYLQMNSLRAEDTAVYYCTSFDYWGQGTLVTVSS VL: SYVLTQLPSKNVTLKQPAHITCGGDNIGSKSVHWYQQKLGQAPILIIYYDTSRPTGIPERFSGANSGNTATLTISGALAEDEADYYCQVWDSSANVFGGGTHLTVL
binds | PMX070 (antibody, V domains shown) VH: EMQLVESGGDLVKPGGSLRLSCVASGFTFSRYHMSWVRQAPGKGLQWVAYINSGGSPTNYADAVKGRFTISRDNAKNTLYLQMNSLRAEDTAVYYCTTYDQWGQGTLVTVSS VL: SYVLTQLPSKSVTLKQPAHITCGGDNIGSKSVHWYQQKLGQAPVLIIYYDSSRPTGIPERFSGANSGNTATLTISGALAEDEADYYCQVWDTSANVFGGGTHLTVL
binds | PMX073 (antibody, V domains shown) VH: EVQLVESGGDLVKPGGSLRLSCVASGFTFSRYYMNWVRQAPGKGLQWVAFITSGGSSTSYGDAVKGRFTISRDNAKNTLYLQMNSLRAEDTAVYYCTSFDYWGQGTLVTVSS VL: SYVLTQLPSKNVTLKQPAHITCGGDNIGSKSVHWYQQKLGQAPVLIIYYASSRPTGIPERFSGANSGNTATLTISGALAEDEADYYCQVWDSSANVFGGGTHLTVL
